Assay [1] has as its target T1, human c-Met-ECD-Fc-Flis (human).
T1 construct: Expressed in CHO cells; also called c-Met-ECD with Fc and Flis tag; ECD of human c-MET
Description: SPR (BIAcore), antibody captured by goat anti-mouse Fc, c-Met-ECD-Fc-Flis as analyte, 25 C, 1:1 model, n=2. Background: In SPR one partner is held on a chip, and binding of the other changes the refractive index at the surface.

The target of assay [2] is T1, human c-Met-ECD-Fc-Flis. Description: SPR (BIAcore).
The target in assay [3] is T2, RON on RON-transfected NIH 3T3 cells (UniProt Q04912 25-1400, limits assumed).
T2 construct: whole, on cells; Formalin-fixed paraffin-embedded cell pellets in IHC; also called RON transfected NIH3T3 Cell Line
Description: IHC on FFPE cell microarray (Dako EnVision FLEX+), manual reading by brightfield microscope. The source says:
For staining human tumor cell lines, 60 million cells may be harvested, formalin-fixed, and processed into histogel. The histogel cell pellets may be embedded into paraffin blocks, cored, and designed into a cell microarray that may be re-embedded in a paraffin block and then microtomed onto slides. These slides may be immunohistochemically stained and counterstained using the IHC assay protocol as described above in Example 7. RON-transfected NIH 3T3 cells and mock NIH 3T3 cells (mouse embryonic fibroblasts) are used as non-c-MET expressing negative controls.

The target of assay [4] is T3, ECD of human RON (R&D Systems, #1947-MS-050) (human, UniProt Q04912 25-957).
T3 construct: extracellular domain; Bought reagent; also called MST1R
In words: IHC pre-absorption/blocking: Antibody II at 2 microgram/mL incubated overnight with RON ECD, then used to stain slides. How it is done:
The antibody, or antigen-binding fragment thereof, of the present invention at 2 microgram/mL may be incubated overnight with either c-Met-ECD-Fc-Flis (SEQ ID NO: 23) or the ECD of human RON (R&D Systems, #1947-MS-050) at 200× molar excess on a rotator at 4° C. After overnight incubation, the antibody, or antigen-binding fragment thereof, of the present invention may be tested against slides of human tissue or cancer cell lines as described above in Example 6.

Experimental findings from patent US20150118238A1 (Eli Lilly, published 2015) are described below.

Changes are numbered by the printed parent chain.

T1 sequence (chain, as listed by the source limits assumed): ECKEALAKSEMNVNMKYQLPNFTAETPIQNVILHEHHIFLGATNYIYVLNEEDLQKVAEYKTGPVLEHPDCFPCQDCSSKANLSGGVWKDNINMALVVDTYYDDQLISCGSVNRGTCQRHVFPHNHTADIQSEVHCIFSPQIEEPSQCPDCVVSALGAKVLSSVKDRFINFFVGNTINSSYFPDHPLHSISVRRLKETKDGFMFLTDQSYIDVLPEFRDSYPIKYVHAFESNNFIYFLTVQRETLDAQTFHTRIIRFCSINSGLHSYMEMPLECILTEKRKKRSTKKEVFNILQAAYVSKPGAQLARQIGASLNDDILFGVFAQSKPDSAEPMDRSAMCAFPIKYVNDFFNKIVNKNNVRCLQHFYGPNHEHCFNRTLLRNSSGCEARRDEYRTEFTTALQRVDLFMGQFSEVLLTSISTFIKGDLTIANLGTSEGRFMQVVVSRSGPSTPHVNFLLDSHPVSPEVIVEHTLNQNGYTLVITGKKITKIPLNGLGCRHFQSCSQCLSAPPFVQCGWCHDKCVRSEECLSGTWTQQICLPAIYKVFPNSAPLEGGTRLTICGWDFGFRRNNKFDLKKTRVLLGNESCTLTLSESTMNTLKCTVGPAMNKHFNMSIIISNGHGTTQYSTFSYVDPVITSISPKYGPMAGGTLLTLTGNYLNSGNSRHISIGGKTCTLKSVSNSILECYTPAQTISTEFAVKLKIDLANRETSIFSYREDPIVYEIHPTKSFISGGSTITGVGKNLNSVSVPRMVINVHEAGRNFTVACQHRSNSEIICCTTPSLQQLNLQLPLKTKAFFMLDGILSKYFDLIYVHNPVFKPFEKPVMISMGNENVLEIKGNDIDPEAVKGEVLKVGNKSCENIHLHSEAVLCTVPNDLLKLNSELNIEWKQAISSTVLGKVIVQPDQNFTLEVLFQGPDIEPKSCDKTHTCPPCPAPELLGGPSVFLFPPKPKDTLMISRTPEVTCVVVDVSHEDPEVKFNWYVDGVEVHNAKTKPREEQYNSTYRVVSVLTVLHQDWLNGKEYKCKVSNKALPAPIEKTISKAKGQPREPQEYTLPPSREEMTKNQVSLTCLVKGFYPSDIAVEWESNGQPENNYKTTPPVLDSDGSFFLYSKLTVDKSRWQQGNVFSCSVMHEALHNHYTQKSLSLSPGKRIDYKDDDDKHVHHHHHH

B1: Antibody I (antibody, V domains shown)
VH: EVQLQQSGTVLARPGASVKMSCKASGYSFTSYWMYWVKQRPGQGLEWIGGFHPGNSGTNYNQKFKGKAKLTAVTSASTAYMELSSLTNEDSAVYYCTRGYYYDGSFTYWGQGTLVTVSA
VL: EIQMTQSPASLSASVGETVTITCRASENIYSYLAWYQRKQGRSPQLLVYNAKPLAEGVPSRFSGSGSGTQFSLKINSLQPEDFGTYYCQHHYGTPFTFGSGTRLEIKR
notes: Captured by anti-mouse Fc and detected with anti-mouse IgG; also called R-PE-Antibody I (R-phycoerythrin conjugate used in the CTC assay)
Consider B1, for which, in the assay with human c-Met-ECD-Fc-Flis [1], binding was put at a Kd of 2.47 nM; the koff (as a rule, the rate constant with which the complex falls apart) came out at 0.000302 s⁻¹; the kon – broadly, the second-order rate constant of association – was 123000 M⁻¹ s⁻¹.

B2: Antibody II (antibody, V domains shown)
VH: B1 VH with G54R
VL: B1 VL
notes: also called R-PE-Antibody II (R-phycoerythrin conjugate used in the CTC assay); Antibody II (Anti-cMET)
As to B2, the “fold binding affinity compared to Antibody I” value with human c-Met-ECD-Fc-Flis [2] is over 5 fold. Besides, in assay [3], the binding result is “no binding (tested: 2 µg/mL)”. Besides, in the assay with human c-Met-ECD-Fc-Flis [1], binding was put at a Kd of 0.37 nM, the koff was 4.6e-05 s⁻¹ and the kon was determined as 125000 M⁻¹ s⁻¹. The binding result in assay [4] is recorded as “no binding (tested: 200× molar excess)”.
